pEC50, pKd: −log10 of the molar value. Values belong to the substance of their own block, whether it stands above or below them.
Assays:
[1] = target: anti-huPD-1-huGITR-L bispecific (Anti-PD-1-GITR-L-hIgG1-LALA) (human) (UniProt Q9UNG2); assay: SPR; bispecific captured as in the human SPR, recombinant human or cynomolgus GITR-His as analyte; cross-species experiment (Supplementary Table 11)
[2] = target: anti-huPD-1-huGITR-L bispecific (Anti-PD-1-GITR-L-hIgG1-LALA) (human) (UniProt Q9UNG2); assay: SPR; Biacore T200; antibody constructs captured by goat anti-human H+L on a CM5 chip, recombinant human GITR-His as analyte; global 1:1 fit (Supplementary Table 3)
[3] = target: isotype/huGITR-L-hIgG1-LALA (human); assay: as above
[4] = target: anti-PD-1-hIgG1-LALA (human); assay: SPR; as for human FcRn/β2m: samples immobilised, cyno FcRn/β2m as analyte; pH 6.0
Sequence of anti-PD-1-hIgG1-LALA (human) (heavy, as listed by the source, chain 1 of 2): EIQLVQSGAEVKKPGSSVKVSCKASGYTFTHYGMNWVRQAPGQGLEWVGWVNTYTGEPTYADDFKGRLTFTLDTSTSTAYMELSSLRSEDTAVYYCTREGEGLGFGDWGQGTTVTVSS
Sequence of anti-PD-1-hIgG1-LALA (human) (light, as listed by the source, chain 2 of 2): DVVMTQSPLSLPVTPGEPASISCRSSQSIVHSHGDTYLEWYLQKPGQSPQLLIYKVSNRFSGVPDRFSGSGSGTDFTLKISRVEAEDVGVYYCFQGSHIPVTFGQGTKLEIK

[5] = target: isotype-hIgG1-LALA (human); assay: as above
[6] = target: anti-huPD-1-huGITR-L bispecific (Anti-PD-1-GITR-L-hIgG1-LALA) (human) (UniProt Q9UNG2); assay: as above
[7] = target: isotype/huGITR-L-hIgG1-LALA (human); assay: as above
[8] = target: anti-PD-1-hIgG1-LALA (human); assay: SPR; Biacore T200; samples directly immobilised by amine coupling, human FcRn/β2m as analyte; running buffer pH 6.0
[9] = target: isotype-hIgG1-LALA (human); assay: as above
[10] = target: anti-huPD-1-huGITR-L bispecific (Anti-PD-1-GITR-L-hIgG1-LALA) (human) (UniProt Q9UNG2); assay: as above
[11] = target: isotype/huGITR-L-hIgG1-LALA (human); assay: as above
[12] = target: human GITR on transfected HEK293 cells (human) (UniProt Q9Y5U5); assay: flow cytometry on cells; human GITR-HEK293 cells incubated with a serial dilution of antibodies; detected with PE goat anti-human IgG F(ab')2

pKd [1]: 9.10 | koff [1]: 0.00087 s⁻¹ | kon [1]: 1.1e+06 M⁻¹ s⁻¹
Substance: Cyno GITR-His (recombinant extracellular domain of cynomolgus GITR) (domain or fragment)

pKd [2]: 7.80 | koff [2]: 0.0017 s⁻¹ | kon [2]: 110000 M⁻¹ s⁻¹ | pKd [3]: 7.82 | koff [3]: 0.0016 s⁻¹ | kon [3]: 110000 M⁻¹ s⁻¹ | pKd [1]: 8.74 | koff [1]: 0.001 s⁻¹ | kon [1]: 560000 M⁻¹ s⁻¹
Substance: Hu GITR-His (recombinant extracellular domain of human GITR) (from UniProt Q9Y5U5 26-162) (domain or fragment)

pKd [4]: 5.72 | pKd [5]: 5.77 | pKd [6]: 5.70 | pKd [7]: 5.66
Substance: cyno FcRn/β2m heterodimer (from UniProt Q8SPV9 24-365; Q8SPW0 21-119) (complex)

pKd [8]: 5.66 | pKd [9]: 5.70 | pKd [10]: 5.64 | pKd [11]: 5.62
Substance: human FcRn/β2m heterodimer (from UniProt P55899 24-297; P61769 21-119) (complex)

pEC50 [12]: 9.05
Substance: isotype/huGITR-L-hIgG1-LALA
